# According to publication PMC2852416, “Modular Insulators: Genome Wide Search for Composite CTCF/Thyroid Hormone Receptor Binding Sites”:
# T1: GST-TR (TRbeta) (human, UniProt P10828 1-461)
# T1 sequence: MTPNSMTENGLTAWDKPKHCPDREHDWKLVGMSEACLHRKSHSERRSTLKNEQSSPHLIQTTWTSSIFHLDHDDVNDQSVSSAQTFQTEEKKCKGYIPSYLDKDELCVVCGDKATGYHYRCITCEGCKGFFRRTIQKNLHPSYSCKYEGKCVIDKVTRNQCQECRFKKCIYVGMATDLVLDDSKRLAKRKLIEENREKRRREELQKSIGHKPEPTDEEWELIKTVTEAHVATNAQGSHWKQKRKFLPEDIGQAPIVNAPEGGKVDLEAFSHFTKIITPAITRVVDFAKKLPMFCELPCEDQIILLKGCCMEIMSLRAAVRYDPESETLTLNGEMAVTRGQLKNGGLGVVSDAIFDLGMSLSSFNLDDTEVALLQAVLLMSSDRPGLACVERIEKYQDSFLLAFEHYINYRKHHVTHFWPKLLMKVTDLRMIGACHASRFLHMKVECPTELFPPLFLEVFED
# B1: F2 TRE (ER6) (dsDNA)
# DNA 1: AGCTTTTAGTTACTTATTGACCCCAGCTGAGGTCAG
# DNA 2: GATCCTGACCTCAGCTGGGGTCAATAAGTAACTAAA
# B2: COMT DR4 (dsDNA)
# DNA 1: ACCCGAGGGCACCAGAGGGCACGAGA
# DNA 2: TCTCGTGCCCTCTGGTGCCCTCGGGT
# B3: F2mut TRE (dsDNA)
# DNA 1: AGCTTTTAGTTACTTATTGGGTCCAGCTGATCCCAG
# DNA 2: GATCCTGGGATCAGCTGGACCCAATAAGTAACTAAA
# Legend:
# [1] = target: T1, GST-TR (TRbeta); assay: competition; 50-fold excess against COMT DR4 probe; PBS pH 7.4, 5 mM MgCl2, 1 mM ZnCl2, 1 mM DTT, 0.1% NP-40, 10% glycerol, 200 ng/ul pdIdC, 25-100 ng/ul salmon sperm DNA, 20 min room temperature; 5% PAGE in TAE; settings: protein: recombinant; tags: GST; label: 32P; 5' overhangs 4 nt
# [2] = target: T1, GST-TR (TRbeta); assay: EMSA; PBS pH 7.4, 5 mM MgCl2, 1 mM ZnCl2, 1 mM DTT, 0.1% NP-40, 10% glycerol, 200 ng/ul pdIdC, 25-100 ng/ul salmon sperm DNA, 20 min room temperature; 5% PAGE in TAE; settings: protein: recombinant; tags: GST; label: 32P; blunt
# [3] = target: T1, GST-TR (TRbeta); assay: competition; mutated F2 against COMT DR4 probe; PBS pH 7.4, 5 mM MgCl2, 1 mM ZnCl2, 1 mM DTT, 0.1% NP-40, 10% glycerol, 200 ng/ul pdIdC, 25-100 ng/ul salmon sperm DNA, 20 min room temperature; 5% PAGE in TAE; settings: protein: recombinant; tags: GST; 5' overhangs 4 nt
binder,measurement,setting,value
B1,binding result,[1],binds
B2,binding result,[2],binds
B3,binding result,[3],no binding
